T1: IL-18R1 ECD-His (human)
T1 chain: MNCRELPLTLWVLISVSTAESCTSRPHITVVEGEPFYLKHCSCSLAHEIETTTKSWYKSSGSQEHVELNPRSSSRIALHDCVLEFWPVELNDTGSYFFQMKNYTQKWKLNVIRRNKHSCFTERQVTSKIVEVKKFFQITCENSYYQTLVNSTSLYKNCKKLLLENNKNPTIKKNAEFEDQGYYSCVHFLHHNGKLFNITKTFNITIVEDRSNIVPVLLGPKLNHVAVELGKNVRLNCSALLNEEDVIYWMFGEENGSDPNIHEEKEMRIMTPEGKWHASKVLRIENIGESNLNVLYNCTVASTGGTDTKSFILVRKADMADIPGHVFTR

T2: IL-18RAP ECD-His (human)
T2 chain: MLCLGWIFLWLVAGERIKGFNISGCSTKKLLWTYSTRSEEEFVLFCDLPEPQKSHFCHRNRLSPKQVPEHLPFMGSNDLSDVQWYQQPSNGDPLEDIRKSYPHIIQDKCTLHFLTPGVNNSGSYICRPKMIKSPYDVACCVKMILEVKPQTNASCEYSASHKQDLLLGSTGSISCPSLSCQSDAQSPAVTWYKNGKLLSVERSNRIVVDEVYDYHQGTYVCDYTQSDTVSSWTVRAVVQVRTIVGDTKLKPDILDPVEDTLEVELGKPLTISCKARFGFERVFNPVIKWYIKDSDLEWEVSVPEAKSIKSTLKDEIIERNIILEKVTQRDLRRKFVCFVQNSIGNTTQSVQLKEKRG

B1: R1-C7-hFc (antibody, V domains shown)
VH: QVQLQESGGGPVQAEGSLRLSCTASGNLYRDPCMGWFRQAPGKDREGVAAMNTGADSTFYARSVKGRFTISHDNAKNTLYLQMNSVKPEDTAMYYCAASRYCTERTWTWRYDYDYWGQGTQVTVSS
B2: hzR1-C7-hFc (antibody, V domains shown)
VH: EVQLVESGGGLVQPGGSLRLSCAASGNLYRDPCMGWFRQAPGKDREGVAAMNTGADSTFYARSVKGRFTISRDNAKNTLYLQMNSLRAEDTAVYYCAASRYCTERTYTWRYDYDYWGQGTLVTVSS
B3: hzR1-A12-hFc (antibody, V domains shown)
VH: EVQLVESGGGLVQPGGSLRLSCAASGTAYDNACMGWFRQAPGKEREGVASIHLRDRTYYADSVKGRFTISRDNSKNTLYLQMNSLRAEDTAVYYCASSNICNALNLQGNTYWGQGTLVTVSS
B4: R1-A12-hFc (antibody, V domains shown)
VH: QVQLQESGGGPVQAGGSLRLSCSASTTAYDNACMGWFRQAPGKEREGVASIHLRDRTYYADSVKGRFTLSRDGASKTLYLQMNSLKPEDSGTYYCASSNICNGLNLQGNTYWGQGTQVTVSS
B5: hzR1-F9-hFc (antibody, V domains shown)
VH: EVQLVESGGGLVQPGGSLRLSCAASGFTVHDMGWYRQAPGKECELVSTISSDASTYYADSVKGRFTISRDNAKNTLYLQMNSLRAEDTAVYYCAADSFTGLQLAECKADFGYWGQGTLVTVSS
B6: hzR1-C10-hFc (antibody, V domains shown)
VH: EVQLVESGGGLVQPGGSLRLSCAASGSTFDEYDMGWYRQAPGGKCELVSTISTIDASTYYADSVKGRFTISRDNSKNTLYLQMNSLRAEDTAVYYCEADDRGTWDRGGCWGQGTLVTVSS
B7: R1-F9-hFc (antibody, V domains shown)
VH: QVQLQESGGGSVQAGETLRLSCTASGFTVHDMGWYRQAPGNECELVSTISSDGSTYYADSVKGRFTISQDNAKNTVYLQMNSLKPEDTAVYYCAADHFTGLQLAECKADFGYWGQGTQVTVSS
B8: R1-C10-hFc (antibody, V domains shown)
VH: QVQLQESGGGSVQAGETLRLSCTASGSTFDEYDMGWYRQAPGNKCELVSTISTIDGSTYYADSVKGRFTISQDNTKNTVYLQMNSLKPEDTGVYYCEADDRGTWDRGGCWGQGTQVTVSS
B9: Rap-F11-hFc (antibody, V domains shown)
VH: QVQLQESGGGSVQPGGSLRLSCAASGFTYIPAYMGWFRQAPGKERERVASIKTDGSTTYADSVNGRFTIAQDTAKNTLYLQMDSLKPEDTAMYYCAAYQFGAFRVWGQGTQVTVSS
B10: Rap-C10-hFc (antibody, V domains shown)
VH: QVQLQESGGGSVQPGGSLRLSCAASGFTYIPAYMGWFRQAPGKERERVASISSTDGSTTYADSVKGRFTVSQDTAKNTLYLQMNSLKPEDTAMYYCAAYQFGAFRVWGQGTQVTVSS
B11: hzRap-C10-hFc (antibody, V domains shown)
VH: B10 VH with Q1E, Q5V, S11L, D55E, V70I, T74N, A75S, K87R, M93V, Q112L
B12: Rap-A10-hFc (designed binder)
chain: QVQLQESGGGLVQAGGSLKLSCAASGYTYGPYCMGWFRQFPGKEREGVAAVGGDGRTWYGNSVKGRFTISQDNAKKTLYLQINALKPEDTAMYYCAADFDRTVCSDDIYDYTYRGQGTQVTVSS
B13: hzRap-F11-hFc (antibody, V domains shown)
VH: EVQLVESGGGLVQPGGSLRLSCAASGFTYIPAYMGWFRQAPGKERERVASIKTDASTTYADSVEGRFTISQDNAKNTLYLQMNSLRPEDTAVYYCAAYQFGAFRVWGQGTLVTVSS
B14: hzRap-A10-hFc (designed binder)
chain: EVQLLESGGGLVQPGGSLRLSCAASGYTYGPYCMGWFRQAPGKEREGVAAVGGDARTWYGNSVKGRFTISRDNSKNTLYLQMNSLRAEDTAVYYCAADFDRTVCSDDIYDYTYRGQGTLVTVSS

Positions count from the first letter of the chain named.

The target in the first assay is T1, IL-18R1 ECD-His. Description: BLI.
The Kd is the equilibrium constant for the complex coming apart. Low values mean tighter binding, high ones weaker binding. With B1, the Kd stood at 2.56 nM.

B2 showed a Kd of 2.53 nM. The Kd values of the last two molecules are within 1.5-fold of each other.

With B3, the Kd was determined as 2 nM.

B4 yielded a Kd of 2.82 nM.

In turn, B5 returned a Kd of 3.74 nM.

As for B6, binding was characterised by a dissociation constant (Kd) of 1.45 nM.

Consider B7, for which the affinity, expressed as Kd, was 1.1 nM.

B8 returned a Kd of 0.0281 nM.

Another assay has as its target T2, IL-18RAP ECD-His. Briefly: BLI. On the technique in general: In BLI a coated tip is dipped into the sample, and binding shifts an interference pattern.
As for B9, the Kd is 4.58 nM.

With B10, binding was characterised by a dissociation constant (Kd) of 1.73 nM.

As to B11, binding was put at a Kd of 6.24 nM.

In turn, B12 returned a Kd of 0.53 nM.

Molecule B13 registered a Kd of 4.85 nM.

B14 gave a Kd of 0.986 nM.
